# What was measured:
# [1] = biological target: EGF antigen on the surface of the NCI-H292 cell membrane (proEGF) (human) (UniProt P01133); assay: flow cytometry on NCI-H292 cells, control IgG1 1 µg, FITC secondary
# [2] = biological target: EGF antigen on the surface of the NCI-H292 cell membrane (proEGF) (human) (UniProt P01133); assay: flow cytometry on NCI-H292 cells, control IgG1 1 µg, PerCP secondary
# EGF antigen on the surface of the NCI-H292 cell membrane (proEGF) (human), sequence (P01133 23-1207): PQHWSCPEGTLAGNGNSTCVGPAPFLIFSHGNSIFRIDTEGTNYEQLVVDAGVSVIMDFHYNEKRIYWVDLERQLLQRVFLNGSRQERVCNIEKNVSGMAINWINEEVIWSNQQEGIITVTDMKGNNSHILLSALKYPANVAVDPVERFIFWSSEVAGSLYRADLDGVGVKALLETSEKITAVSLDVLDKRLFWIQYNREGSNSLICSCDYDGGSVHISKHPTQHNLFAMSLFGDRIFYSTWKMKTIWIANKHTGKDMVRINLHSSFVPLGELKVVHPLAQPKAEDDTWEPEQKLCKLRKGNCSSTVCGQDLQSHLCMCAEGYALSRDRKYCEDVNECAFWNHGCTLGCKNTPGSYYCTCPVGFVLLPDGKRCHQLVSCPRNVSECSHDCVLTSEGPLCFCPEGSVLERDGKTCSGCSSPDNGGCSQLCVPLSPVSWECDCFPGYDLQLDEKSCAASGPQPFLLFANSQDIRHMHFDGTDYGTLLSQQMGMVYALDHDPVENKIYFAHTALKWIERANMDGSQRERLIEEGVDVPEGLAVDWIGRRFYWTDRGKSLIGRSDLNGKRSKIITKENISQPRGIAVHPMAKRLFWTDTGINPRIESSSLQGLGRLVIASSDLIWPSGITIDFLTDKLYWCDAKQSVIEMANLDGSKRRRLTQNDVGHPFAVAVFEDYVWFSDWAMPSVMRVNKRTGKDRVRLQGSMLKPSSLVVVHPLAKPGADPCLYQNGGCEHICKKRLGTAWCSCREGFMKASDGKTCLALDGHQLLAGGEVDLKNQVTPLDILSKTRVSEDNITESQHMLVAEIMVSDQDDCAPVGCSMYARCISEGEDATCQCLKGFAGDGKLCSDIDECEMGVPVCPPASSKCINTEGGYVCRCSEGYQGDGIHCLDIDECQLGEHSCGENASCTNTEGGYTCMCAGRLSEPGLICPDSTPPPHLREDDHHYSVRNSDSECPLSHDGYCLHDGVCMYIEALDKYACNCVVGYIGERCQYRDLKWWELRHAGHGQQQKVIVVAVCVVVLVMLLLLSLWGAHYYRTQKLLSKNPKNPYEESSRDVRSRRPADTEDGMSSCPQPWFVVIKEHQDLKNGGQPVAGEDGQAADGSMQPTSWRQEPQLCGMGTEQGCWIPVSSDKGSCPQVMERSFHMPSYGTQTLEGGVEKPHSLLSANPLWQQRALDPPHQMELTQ
substance,measurement,setting,value
normal mouse IgG1 (produced by R & D Corp.) (antibody),average fluorescence intensity (back ground),[1],4.62
same,average fluorescence intensity (back ground),[2],8.44

# From patent publication US20040038369A1, “Airway-specific trypsin-like enzymes and method of using the same” (priority 2000, published 2004)
